Source: US6001823A, “Treatment or prophylaxis of diseases caused by pilus-forming bacteria” (priority 1995, dated 1999)
“Also recorded” adds a separate entry of the source.

What was measured:
PapD [1] = target: T1, PapD (Escherichia coli, UniProt P15319); experiment: Soluble inhibition ELISA: peptide inhibition of PapD binding to G1'-19'WT-coated wells; set-up: made in house; species or system E. coli; conditions: for % Inhibition: 25-fold molar excess of peptide, 100 pmol/well PapD, G1'-19'WT-coated wells; for inhibition of PapD binding to immobilized G1'-19'WT by soluble peptide: peptide in solution
T1 sequence (P15319 22-239): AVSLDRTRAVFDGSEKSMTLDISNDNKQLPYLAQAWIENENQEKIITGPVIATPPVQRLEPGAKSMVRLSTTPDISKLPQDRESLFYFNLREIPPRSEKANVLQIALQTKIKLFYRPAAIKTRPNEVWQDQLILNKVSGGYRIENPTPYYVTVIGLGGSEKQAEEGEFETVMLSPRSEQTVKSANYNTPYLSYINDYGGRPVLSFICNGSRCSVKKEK
Protocol: In addition, the ability of water-soluble peptides to inhibit PapD binding to G1'-19'WT-coated wells in a soluble inhibition ELISA were tested, since peptide conformations may have been affected by binding to the plastic microtiter plates:
Microtiter wells were coated overnight at 4° C. with 50 μl of 2,5 pmol/50 μl of the G1'-19'WT peptide. The wells were washed with PBS and blocked with 3% bovine serum albumin (BSA). A 25-fold molar excess of each test peptide was pre-incubated with 100 pmoles PapD for 30 min. and the PapD-peptide solution was then added to the coated wells and incubated at 25° C. for 45 min in the presence of 3% BSA/PBS. The subsequent primary antibody, secondary antibody and developing steps are described above. The ability of the peptides to inhibit binding of PapD to the G1'-19'WT peptide was calculated by dividing the amount of PapD binding in the presence of peptide with the amount of PapD binding in the presence of water. 0% inhibition includes values where binding was greater than that of PapD pre-incubated with H2 O.
The % inhibition represents the percentage of PapD binding in the presence of the peptide compared to in the presence of water and are the average of two experiments performed duplicate: […]

PapD [2] = target: T1, PapD; experiment: ELISA: PapD binding to peptides coated on microtiter wells; set-up: made in house; species or system E. coli; conditions: for binding of PapD to immobilized peptide: peptide coated on microtiter wells, ELISA; for reduction of binding of PapD to the immobilized peptide: variant of the PapG carboxyl terminal peptide
Protocol: The residues in the peptides were numbered starting with the carboxyl terminal residue as 1, and ending with the amino terminal residue. Peptides were also synthesized which deviated in length (G1'-16'WT, G1'-11'WT, G1'-7'WT) or sequence (G2'-21'amide, G1'-19'SV, G1'-19'NH2) from the wild type PapG carboxyl terminal sequence. Using an enzyme-linked immunosorbent assay (ELISA), we tested the ability of PapD to bind to each peptide coated on wells of microtiter plates:
5 mg/ml stock solutions of peptides in water or 50% acetic acid were diluted to a concentration of 2.5 pmol/50 μl in PBS. 50 μl of the peptide solution was coated overnight onto microtiter wells (Nunc-Immuno Plate Maxisorp) at 4° C. The solutions in the plates were discarded, and the wells were blocked with 200 μl 3% bovine serum albumin (BSA, Sigma) in PBS (120 mM NaCl/2.7 mM KCl/10 mM phosphate buffer salts, pH 7.4) for 2 hours at 25° C. The plates were washed vigorously 3 times with PBS and incubated with 50 μl of the indicated amount of purified PapD (Lindberg et al, 1989). After 3 washes with PBS, the wells were incubated with a 1:500 dilution of anti-PapD rabbit antiserum (Lindberg et al, 1989) in 3% BSA/PBS for 45 min. at 25° C. After 3 washes with PBS, the wells were incubated with a 1:1000 dilution of goat anti-rabbit IgG coupled to alkaline phosphatase (Sigma) in 3% BSA/PBS for 45 min. at 25° C. Following 3 washes with PBS and 3 washes with developing buffer (10 mM diethanolamine pH 9.5, 0,5 mM MgCl2), 50 μl filtered p-nitrophenyl phosphate substrate (Sigma) in developing buffer (10 mg/ml) was added. The absorbance at 405 nm was read after 60 min of incubation in the dark at 25° C.

[3] = Water solubility of peptides; format: physicochemical; set-up: key: *: Water insoluble peptides
PapD [4] = target: T1, PapD; experiment: ELISA: peptide inhibition of PapD binding to MBP-G1'-140' fusion protein; set-up: species or system E. coli; conditions: PapD preincubated with peptide at 1:25 ratio
Protocol: The ability of the peptides to inhibit the binding of PapD to the MBP-G1'-140' fusion protein was then investigated using the following ELISA test:
Stock solutions of MBP-G1'-140' proteins in PBS were diluted to 0.1 μM with PBS. The wells of microtiter plates were coated with 50 μl of the protein solutions overnight at 4° C. The wells were washed with PBS, and blocked with 200 μl of 3% bovine serum albumin (BSA) in PBS for 2 hours at 25° C. The plates were washed vigorously three times with PBS and incubated with 50 μl of 1-5 μM PapD proteins in 3% BSA-PBS for 45 minutes at 25° C. The PapD was preincubated with each of the peptides at a 1:25 ratio for 30 min before being added to the wells. After three washings with PBS, the wells were incubated with a 1:500 dilution of rabbit anti-PapD antiserum in 3% BSA-PBS for 45 minutes at 25° C. After three washings with PBS, the wells were incubated with a 1:1000 dilution of goat antiserum to rabbit IgG coupled to alkaline phosphatase in 3% BSA-PBS for 45 minutes at 25° C. After three washings with PBS and three washings with developing buffer (10 mM diethanolamine, 0.5 mM MgCl2), 50 μl filtered 1 mg/ml p-nitrophenyl phosphate in developing buffer was added, the reaction was incubated for 1 hour or longer if necessary in the dark at 25° C., and the absorbance at 405 nm was read.

PapD-PapG complex = target: T2, PapD-PapG complex (Escherichia coli, UniProt P15319); experiment: Reconstitution assay: restoration of PapD-PapG complex from reduced, denatured PapG; format: biochemical, E. coli; conditions: PapD incubated with increasing amounts of peptide
T2 construct: made in house
T2 sequence (P15319 22-239): T1 sequence (P15319 22-239)
Protocol: B: PapD incubated with the G1'-19'WT, G1'-16'WT, K1'-19'WT, and G2'-21'amide was added to reduced, denatured PapD-PapG and the amount of PapD-PapG complex restored in each sample was quantitated as described in example 2. The % inhibition represents the amount of the PapD-PapG complex restored with peptide-treated PapD compared to the amount of PapD-PapG complex restored with untreated PapD. The graph represent the average of 4 experiments. PapD and PapD-PapG complex were prepared as described in F. Lindberg et al, J. Bacteriol. 171, 6052 (1989) and S. J. Hultgren et al., Proc. Natl. Acad. Sci. U.S.A. 86, 4357 (1989).
FIG. 7: Ability of PapD Arg-8, Lys-112 and Thr-7 mutants to bind PapG and restore the PapD-PapG complex in vitro. 0.4 μg of PapD-PapG complex was reduced and denatured as described in FIG. 2B. The denatured PapD-PapG complex was then diluted with 0-630 ng purified wild type (WT) or mutant PapD. The amount of PapD-PapG restored in the samples was determined as in FIG. 2B and was graphed as a percentage of the greatest amount of PapD-PapG restored. The values graphed represent the average of 3 experiments. Wild type and mutant PapD and the PapD-PapG complex were purified as described in F. Lindberg et al, J. Bacteriol. 171, 6052 (1989) and S. J. Hultgren et al., Proc. Natl. Acad. Sci. U.S.A. 86, 4357 (1989).
As described in Kuehn et al., Proc. Natl. Acad. Sci. U.S.A. 88, 10586 (1991), native PapD is able to bind to reduced, denatured PapG and restore the PapD-PapG complex in vitro. This reconstitution assay was used to determine the ability of the peptides to inhibit PapD activity in vitro.
The PapD-peptide solution was then added to the reduced, denatured PapD-PapG, incubated at 25° C. for 10 min, and applied to an IEF 3-9 gel (Pharmacia). The amount of PapD-PapG restored in each sample was quantitated by densitometry of the silver stained IEF band corresponding to the pI of the DG complex.

PapD [5] = target: T1, PapD; experiment: Protection of PapD against tryptic cleavage by peptides; format: biochemical, E. coli; set-up: made in house; conditions: PapD preincubated with 20-fold molar excess of peptide
Protocol: A Lower: The rate of trypsin cleavage of PapD decreased upon preincubation with the G1'-19'WT, G1'-16'WT or K1'-19'WT peptides, but the G2'-21'amide peptide had no effect. 50 μg of purified PapD was preincubated for 15 min at 25° C. with a 20-fold molar excess of G1'-19'WT, G1'-16'WT, K1'-19'WT or G2'-21'amide peptides (any trypsin cleavage sites in these peptides occur at their amino termini where they were predicted not to interfere with PapD), or an equivalent volume of water. Each sample was then incubated at 37° C. with 3.2 μg of trypsin. Aliquots were removed after 0, 5, 10, 20, 30 and 40 min and boiled in SDS-PAGE sample buffer to stop the digestion. The samples were applied to 15% SDS-PAGE gels and the amount of full-length PapD remaining was determined by densitometry of Coomassie blue stained bands corresponding to full-length PapD which are shown.
400 μg of PapD was partially digested by incubation with either 4,5 μg trypsin or 0.45 μg chymotrypsin on PBS for 20 min. at 37° C. The PapD digests were applied to a C-18 HPLC column (Beckman) and 2 major fragments were eluted with a 0-100% acetonitrile gradient in 0.01% trifluoroacetic acid. The PapD fragments were identified by their molecular weight on SDS-PAGE and amino-terminal sequencing. The N-terminal amino acid sequences of the approximately 14 kDa tryptic and chymotryptic fragments were identified as residues 100-108 and 104-109 of PapD, respectively, corresponding to cleavage after Lys-99 (for trypsin) and Leu-103 (for chymotrypsin). The N-terminal sequences of the 11 and 12 kDa bands in the digests were identical to the N-terminal sequence of PapD.

HB101/pPAP37 = experiment: Hemagglutination titer of PapD mutants; format: cell-based, E. coli; conditions: induction with 0.01 mM IPTG; greatest bacterial dilution which still agglutinates erythrocytes
Protocol: *The hemagglutionation (HA) titer was quantitated after induction with
0.01 mM IPTG. The HA titer represents the greatest bacterial dilution
which still agglutinates erythrocytes. HB101/pPAP37 expressing wild type
PapD has an HA titer of 128.

With “NH2--GKRKPGELSGSMTMVLSFP--CONH2 (H-GKRKPGELSGSMTMVLSFP-NH2) [G1'-19'amide]” the “% Inhibition” value (PapD [1]) was 56%, the “inhibition of PapD binding to immobilized G1'-19'WT by soluble peptide” value (“inhibition of PapD binding” for short) (PapD [1]) was “did not affect binding” and the “binding of PapD to immobilized peptide” value (PapD [2]) was “did not affect binding”.

With “NH2--GILNGGDFQTTASMAMIYN--COOH (H-GILNGGDFQTTASMAMIYN-OH) [F1'-19'WT]” the “binding of PapD to immobilized peptide” value (PapD [2]) was “moderately”.

In the case of “NH2--YALAPNAVIPTSLALL--COOH (H-YALAPNAVIPTSLALL-OH) [MS, random hydrophobic peptide, reference compound]”, the “% Inhibition” value (PapD [1]) is reported as 1% and the “binding of PapD to immobilized peptide” value (PapD [2]) is reported as “no binding”.

With “NH2--QNLIAGPFSATATLVASYS--COOH (H-QNLIAGPFSATATLVASYS-OH) [E1'-19'WT]” the “binding of PapD to immobilized peptide” value (PapD [2]) was “moderately” and the water solubility [3] was “*”.

With “H-SGSMTMVLSFP-OH [G1'-11'WT, NH2--SGSMTMVLSFP--COOH]” the “binding of PapD to immobilized peptide” value (PapD [2]) was “binds”, the water solubility [3] was “*” and the “inhibition of binding of PapD to MBP-G1'-140' fusion protein” value (PapD [4]) was “significantly more potent”.

For “NH2--GKRKPGELSGSMTMVLSFP--COOH (H-GKRKPGELSGSMTMVLSFP-OH) [G1'-19'WT, 19 carboxyl terminal residues of PapG]”, the “% Inhibition” value (PapD [1]) was 63%, the “binding of PapD to immobilized peptide” value (PapD [2]) was “bound well” and the “inhibition of restoration of the PapD-PapG complex by PapD” value (shortened to “inhibition of restoration … by PapD”) (PapD-PapG complex) was “inhibit restoration”. The “rate of tryptic cleavage of PapD” value (PapD [5]) was “decreased; also recorded: reduced the rate of tryptic cleavage”.

With “NH2--EEGKRKPGELSGSMTMVLSF--CONH2 (H-EEGKRKPGELSGSMTMVLSF-NH2) [G2'-21'amide]” the “% Inhibition” value (PapD [1]) was 0%, the “inhibition of PapD binding” value (PapD [1]) was “abolished binding” and the “binding of PapD to immobilized peptide” value (PapD [2]) was “reduced binding”. The “reduction of binding of PapD to the immobilized peptide” value (PapD [2]) was “approximately 75%”, the “inhibition of restoration … by PapD” value (PapD-PapG complex) was “no effect” and the “rate of tryptic cleavage of PapD” value (PapD [5]) was “no effect”.

In the case of “NH2--GKRKPVELSGSMTMVLSSP--COOH (H-GKRKPVELSGSMTMVLSSP-OH) [G1'-19'SV]”, the “inhibition of PapD binding” value (PapD [1]) is reported as “as efficient a soluble PapD inhibitor as the peptide G1'-19'WT” and the “reduction of binding of PapD to the immobilized peptide” value (PapD [2]) is reported as 36%.

In the case of “NH2--KSVVPGDYEATATFELTYR--COOH (H-KSVVPGDYEATATFELTYR-OH) [K1'-19'WT]”, the “binding of PapD to immobilized peptide” value (PapD [2]) is reported as “moderately”, the “inhibition of restoration … by PapD” value (PapD-PapG complex) is reported as “inhibit restoration” and the “rate of tryptic cleavage of PapD” value (PapD [5]) is reported as “decreased; also recorded: reduced the rate of tryptic cleavage”.

For “NH2--KKLEAGNYFAVLGFRVDYE--COOH (H-KKLEAGNYFAVLGFRVDYE-OH) [H1'-19'WT]”, the “binding of PapD to immobilized peptide” value (PapD [2]) was “no binding”.

B1: wild type PapD: wild type periplasmic chaperone PapD (protein, UniProt P15319 22-239, looked up)
Chaperone protein PapD: T1 sequence (P15319 22-239)
B1 gave an HA titer (HB101/pPAP37) of 128.
